From patent US20110280883A1 (SAMSUNG ELECTRONICS, published 2011)

Biological target: T1, EGFR on A431 cell line (overexpresses EGFR) (UniProt P00533 25-1210)
T1 construct: whole, on cells; also called A431 cells; cells overexpressing EGFR
Assay: cell ELISA on A431 cells attached to the plate, antibody titrated
Description: Binding capacity between the antibody obtained in 5 and the A431 cell line (ATCC) which overexpresses EGFR is determined by ELISA [Biological efficacy of a chimeric antibody to the epidermal growth factor receptor in a human tumor xenograft model, Clinic. Cancer res., 1995, vol. 1, 1311-1318] (the entire contents of which are incorporated herein by reference). The protocol for the ELISA assay is similar to that described in 6 above, except that antibody was used over a range of concentration and A431 cells were attached to the plate.

B1: Erbb1 78 clone antibody (fully human full-length IgG) (antibody, V domains shown)
VH: QMQLVQSGGGVVRPGGSLRLSCAASGFTFDDYGMSWVRQAPGKGLEWVSGINWNGGSTGYADSVKGRFTISRDNAKNSLYLQMNSLRAEDTAVYYCARDYWGSLDYWGQGTLITVSS
VL: QSALTQPASVSGSPGQSITISCTGTSSDVGGYNYVSWYQQNSGKAPKLMIHDVNRRPSGVSNRFSGSKSGNTASLTIAGLQADDEADYYCSSYVSTNTYVFGTGTKVTVL
notes: also called Erbb1-78 antibody
With B1 the Kd was 1.09 nM.
